Earlier results as cited in PMC10935721.

Tested on: Tyr32
Conditions: reduced (non-radical) X32

α3Y (de novo three-helix bundle with Tyr32) (synthetic construct (de novo designed))
pKa: 11.3 (±0.1)
